What was measured:
[1] = system: T1, Nc1ncnc2c1ncn2[C@@H]1O[C@H](COP(=O)(O)OP(=O)(O)OP(=O)(O)O)[C@@H](O)[C@H]1O; assay: coupled pyruvate kinase/lactate dehydrogenase NADH ATPase assay, Hill fit; assay type: biochemical, Thermus thermophilus; conditions: 10 mM MgCl2, 25 mM Hepes pH 7.8, 25 mM KCl, 0.01% Tween 20, 25 °C, ATP 50 μM to 3 mM, 1 μM ClpB
T1 construct: N-terminal domain removed, starts at residue 141; His6 tag with TEV site (pET28b); expressed in E. coli BL21 (DE3) pLysS; homohexamer
From the text: coupled pyruvate kinase/lactate dehydrogenase NADH ATPase assay, Hill fit on ΔN-ClpB (ClpB) | plotted as a function of ATP concentration and fitted to the Hill equation

[2] = biological target: ClpB hexamer assembled with a single double-labeled S236C-S359C protomer (PL1 variant) (Thermus thermophilus) (UniProt Q9RA63)
Sequence of ClpB hexamer assembled with a single double-labeled S236C-S359C protomer (PL1 variant) (Thermus thermophilus) (Q9RA63 141-854 S236C/S359C, chain 1 of 2): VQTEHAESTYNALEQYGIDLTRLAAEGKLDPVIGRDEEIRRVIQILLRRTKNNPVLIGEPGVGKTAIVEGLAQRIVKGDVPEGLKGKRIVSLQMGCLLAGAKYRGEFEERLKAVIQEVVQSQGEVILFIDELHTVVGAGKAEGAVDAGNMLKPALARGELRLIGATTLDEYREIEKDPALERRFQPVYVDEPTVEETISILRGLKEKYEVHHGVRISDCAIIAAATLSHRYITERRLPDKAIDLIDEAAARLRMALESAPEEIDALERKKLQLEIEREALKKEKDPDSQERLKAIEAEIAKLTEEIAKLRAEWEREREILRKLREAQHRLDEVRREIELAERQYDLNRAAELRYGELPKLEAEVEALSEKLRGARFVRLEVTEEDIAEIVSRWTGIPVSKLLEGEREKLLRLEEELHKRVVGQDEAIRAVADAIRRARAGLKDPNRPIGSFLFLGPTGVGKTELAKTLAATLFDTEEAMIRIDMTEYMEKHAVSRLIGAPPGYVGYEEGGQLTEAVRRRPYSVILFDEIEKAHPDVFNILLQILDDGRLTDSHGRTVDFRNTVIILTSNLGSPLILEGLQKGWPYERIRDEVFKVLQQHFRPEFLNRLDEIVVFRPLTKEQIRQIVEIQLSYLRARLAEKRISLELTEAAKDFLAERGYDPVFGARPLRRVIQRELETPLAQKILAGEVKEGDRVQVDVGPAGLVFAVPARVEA
Sequence of ClpB hexamer assembled with a single double-labeled S236C-S359C protomer (PL1 variant) (Thermus thermophilus) (Q9RA63 141-854, stated change not applied, chain 2 of 2): as the sequence (Q9RA63 141-854 S236C/S359C, chain 1 of 2) above, with C96S, C219S counted along it

[3] = biological target: ClpB hexamer assembled with a single double-labeled S236C-S359C protomer (PL1 variant) (Thermus thermophilus) (UniProt Q9RA63); remark: listed apart in the source
[4] = biological target: ClpB hexamer assembled with a single double-labeled S359C-Y646C protomer (PL3 variant) (Thermus thermophilus) (UniProt Q9RA63)
Sequence of ClpB hexamer assembled with a single double-labeled S359C-Y646C protomer (PL3 variant) (Thermus thermophilus) (Q9RA63 141-854 S359C/Y646C, chain 1 of 2): as the sequence (Q9RA63 141-854 S236C/S359C, chain 1 of 2) above, with C96S, Y506C counted along it
Sequence of ClpB hexamer assembled with a single double-labeled S359C-Y646C protomer (PL3 variant) (Thermus thermophilus) (Q9RA63 141-854, stated change not applied, chain 2 of 2): as the sequence (Q9RA63 141-854 S236C/S359C, chain 1 of 2) above, with C96S, C219S counted along it

Sequence of ΔN-ClpB (ClpB) (Thermus thermophilus HB8) (chain, as listed by the source mutant): as the sequence (Q9RA63 141-854 S236C/S359C, chain 1 of 2) above, with C96S, C219S counted along it

Row | smFRET with two-state H2MM analysis, 2 mM ATP: population ratio K12^1 of the two PL1 states without and with 20 μM κ-casein [2] | smFRET: substrate-response factor R1 (ratio of K12^1 with and without 20 μM κ-casein), with ATP [3] | smFRET: substrate-response factor R3 (ratio of K12^3 with and without 20 μM κ-casein), with ADP [4] | smFRET: substrate-response factor R3 (ratio of K12^3 with and without 20 μM κ-casein), with ATP [4] | smFRET: substrate-response factor R3 (ratio of K12^3 with and without 20 μM κ-casein), with ATPγS [4] | Substance | K0.5 [1]
1 |  |  |  |  |  | ΔN-ClpB (ClpB) (Thermus thermophilus HB8) | 300 ± 20 µM
2 | 0.81 | 1.68 | 1.71 | 2.28 | 1.34 | κ-casein (from UniProt P02668 22-190) (natural protein) | 

Source: PMC8442866, “Ultrafast pore-loop dynamics in a AAA+ machine point to a Brownian-ratchet mechanism for protein translocation” (Science Advances, 2021)
